Measurements from patent publication US10597674B2, “HPPD variants and methods of use” (BASF Agricultural Solutions Seed, US LLC, priority 2015, dated 2020).
Where a chain is given by its changes, count along the chain named. Names and notes keep the numbering of the source. Like-named read-outs stand apart in the source and are kept apart here.

B1: 16 (protein)
chain: MADLYENPMGLMGFEFIEFASPTPGTLEPIFEIMGFTKVATHRSKNVHLYRQGEINLILNNEPNSIASYFAAEHGPSVCGMAFRVKDSQKAYNRALELGAQPIHIDTGPMELNLPAIKGIGGAPLYLIDRFGEGSSIYDIDFVYLEGVERNPVGAGLKVIDHLTHNVYRGRMVYWANFYEKLFNFREARYFDIKGEYTGLTSKAMSAPDGMIRIPLNEESSKGAGQIEEFLMQFNGEGIQHVAFLTDDLVKTWDALKKIGMRFMTAPSDSYYEMLEGRLPDHGEPVDQLQARGILLDGSSVEGDKRLLLQIFSETLMGPVFFEFIQRKGDDGFGPDSFKVLFESKERDQVRRGVLTAD
modifications: mutant HPPD polypeptide
B2: 60 (protein)
chain: B1 chain with M264R, S268G, S270E, D330H, S344Q, K345V
modifications: mutant HPPD polypeptide
B3: 33 (protein)
chain: B1 chain with S268G, S270E, V340R, K345V
modifications: mutant HPPD polypeptide
B4: 36 (protein)
chain: B1 chain with M264R, S268G, S270E, D330H, K345M
modifications: mutant HPPD polypeptide
B5: 38 (protein)
chain: B1 chain with S268G, S270E, D330V, K345V
modifications: mutant HPPD polypeptide
B6: 50 (protein)
chain: B1 chain with S268G, S270E, D331P, K345V
modifications: mutant HPPD polypeptide
B7: 45 (protein)
chain: B1 chain with S268G, S270E, T315R, K345V
modifications: mutant HPPD polypeptide
B8: SEQ ID NO: 22: mutant HPPD polypeptide: E335P G336H N337S A340V (protein)
chain: B1 chain with S268P, S270T, D336H, K345I
modifications: mutant HPPD polypeptide
notes: mutant HPPD polypeptide: E335P G336H N337S A340V
B9: SEQ ID NO: 101: mutant HPPD polypeptide: M264L P268G T270E T315R E335P G336D N337S A340V S344Q I345M (protein)
chain: B1 chain with M264L, S268G, S270E, T315R, S344Q, K345M
modifications: mutant HPPD polypeptide
notes: mutant HPPD polypeptide: M264L P268G T270E T315R E335P G336D N337S A340V S344Q I345M
B10: 31 (protein)
chain: B1 chain with S268G, S270E, D336H, K345V
modifications: mutant HPPD polypeptide
B11: 48 (protein)
chain: B1 chain with S268G, S270E, D331H, K345V
modifications: mutant HPPD polypeptide
B12: 18 (protein)
chain: B1 chain with M264R, S268P, S270T, D330H, K345I
modifications: mutant HPPD polypeptide
B13: 17 (protein)
chain: B1 chain with S268G, S270E, K345V
modifications: mutant HPPD polypeptide
B14: 8 (protein)
chain: B1 chain with S268P, S270T, K345I
modifications: mutant HPPD polypeptide

Experiments:
[1] = system: HPPD polypeptides (wild-type SEQ ID NO:1 and mutants)
Method: For the generation of crude HPPD polypeptide extract in micro titer plates (MTP) for the determination of residual activity in inhibition assays, cells were grown in 40 or 150 μl LB medium containing 1% Glucose (Merck, Darmstadt, Germany) and 100 μg/ml ampicillin in a standard 96 well plate (Thermo Fisher Scientific, Waltham, USA) incubated for about 18 h in a humidity incubator at 37° C.
30 μl of this starter culture were added to 600 μl LB medium containing 100 μg/ml ampicillin and 150 mM Hepes (Merck, Darmstadt, Germany) as inoculum for the expression culture in 96 well plates (2 ml deep wells; HJ Bioanalytik, Erkelenz, Germany) The plates were sealed by an aluminium foil, and cells were incubated for 5 h at 37° C. on a plate shaker at 750 rpm. The expression was induced by addition of IPTG in a final concentration of 1 mM followed by further sealed incubation for about 18 h at 30° C. on a plate shaker at 750 rpm.
Cells were harvested by centrifugation at 4° C., 2500 g for 15 min discarding the supernatant. Cell pellets were stored at −80° C. and lysed in 250 μl 1× BugBuster® (Merck, Darmstadt, Germany) in 140 mM Tris (pH 7.8), with 1:25000 diluted BNase® (Qiagen, Hilden, Germany) by incubation of the resuspended cells for 30 min at 4° C. and 1000 rpm. Lysates were clarified by centrifugation for 15 min at 4° C., 2500 g, and 150 μl supernatant were transferred in standard 96 well plate (Thermo Fisher Scientific, Waltham, USA) for subsequent testing in quadruplets.
The activity of HPPD polypeptides was determined in absence or presence of HPPD inhibitors using the coupled HPPD activity assay (FIG. 1).
For the determination of the residual activity, the apparent kinetic constant (kapp) of the determined substrate conversion was measured as kinetic changes in absorbance at 320 nm in a coupled assay, in that homogentisate (HGA) formed by HPPD from HPP is directly converted into the well absorbing molecule maleylacetoacetate (MAA) by a second enzyme homogentisate dioxygenase (HGD), applied in excess uniformly in all assays (see FIG. 1). The measurements were performed in 384 micro titer plates (Greiner Bio-One GmbH, Frickenhausen, Germany) by plate readers (Tecan infinite M1000 or M1000PRO, Tecan, Männedorf, Switzerland). The kcat/kM ratio of an enzymatic activity is proportional to the apparent kinetic constant kapp and is proportional to kcat/kM*[E] ([E]=enzyme concentration). […] As both kapp measurements in the presence and absence of inhibitor were performed by use of the identical enzyme sample, crude or purified, and thereby at the same enzyme concentration, the enzyme concentration eliminates from the calculation of residual activity and the ratio of both kapp directly indicates the change of kM due to the inhibition.

[2] = system: transgenic soybean T0 events; assay: Additional greenhouse trials of T0 soybean events, leaf damage score 0-100 as percentiles; assay type: in vivo; conditions: Cmpd. 1 300 g AI/ha, five days; for leaf damage score, Interquartile range: 75th minus 25th percentile; for leaf damage score, 25th percentile: scale 0 (no damage) to 100 (complete bleaching); for leaf damage score, 75th percentile / leaf damage score, 90th percentile / leaf damage score, Median: scale 0-100
Text: In additional greenhouse trials, 21 to 94 independent T0 soybean events per construct containing an exemplary mutant HPPD polypeptide were sprayed with the HPPD inhibitor herbicide Cmpd. […] Five days after the application, the leaf damaged area due to the HPPD inhibitor herbicide is scored in a scale from 0 (no damage) to 100 (complete bleaching). Under those conditions, the wild-type plants were completely bleached and their damage scores were in the 95-100 range.
Table 9 presents the distribution of the HPPD inhibitor herbicide damage score data as percentile for exemplary mutant HPPD inhibitor herbicide tolerant polypeptides (SEQ ID NOs). The percentiles normalize ranks of the damage score from an individual plant in a population. […] The median is the 50th percentile. Half the values had higher damage scores; half had lower damage scores. […] The difference between the 75th and 25th percentile is called the interquartile range and a marker to quantify scattering in the population. All constructs had only one single cassette insertion in the soybean genome.
In Table 9, the constructs were ranked based on injury scores according to the 75th percentile, from smallest to highest score. All exemplary HPPD polypeptide variants are better in all percentile analyses than the prior art mutant HPPD polypeptide (WO2014/043435) corresponding to SEQ ID NO:2 in this invention. The scoring of the prior art mutant HPPD polypeptide (WO2014/043435) corresponding to SEQ ID NO:2 in this invention is listed in the bottom row of Table 9.

[3] = in the presence of Cmpd. 1, 15 μM inhibitor, high substrate concentration, kapp normalized to kapp without inhibitor
[4] = in the presence of Cmpd. 1, 15 μM inhibitor, high substrate concentration, total change in signal normalized to no inhibitor
[5] = in the presence of Cmpd. 2, 15 μM inhibitor, high substrate concentration, kapp normalized to kapp without inhibitor
[6] = in the presence of Cmpd. 2, 15 μM inhibitor, high substrate concentration, total change in signal normalized to no inhibitor
[7] = in the presence of diketonitrile (DKN), 60 μM inhibitor, high substrate concentration, kapp normalized to kapp without inhibitor
[8] = in the presence of diketonitrile (DKN), 60 μM inhibitor, high substrate concentration, total change in signal normalized to no inhibitor
[9] = in the presence of mesotrione (MST), 60 μM inhibitor, high substrate concentration, kapp normalized to kapp without inhibitor
[10] = in the presence of mesotrione (MST), 60 μM inhibitor, high substrate concentration, total change in signal normalized to no inhibitor
[11] = kapp in presence of 50 μM Cmpd. 1, normalised to kapp without inhibitor, low substrate concentration
[12] = total change in signal in presence of 50 μM Cmpd. 1, normalised to that without inhibitor, low substrate concentration

Row | Molecule | Residual activity [1, 3] [%] | Residual turnover [1, 4] [%] | Residual activity [1, 5] | Residual turnover [1, 6] | Residual activity [1, 7] | Residual turnover [1, 8] | Residual activity [1, 9] [%] | Residual turnover [1, 10] | Residual activity [1, 11] [%] | Residual turnover [1, 12] [%] | other results
1 | CS(=O)(=O)c1ccc(C(=O)C2C(=O)CCCC2=O)c([N+](=O)[O-])c1 [mesotrione, 2-[4-(methylsulfonyl)-2-nitrobenzoyl]-1,3-cyclohexanedione, reference compound] | 9 | 9 | 16% | 22% | 17% | 17% | 13 | 17% | – | – | –
2 | B1 | 45 | 69 | 94% | 94% | n.i. (no inhibition was observed under the given conditions) | n.i. | 88 | 92% | – | – | –
3 | B2 | – | – | – | – | – | – | – | – | 64 | 84 | –
4 | B3 | – | – | – | – | – | – | – | – | 40 | 65 | –
5 | B4 | – | – | – | – | – | – | – | – | 67 | 85 | –
6 | B5 | – | – | – | – | – | – | – | – | 78 | 94 | –
7 | B6 | – | – | – | – | – | – | – | – | 46 | 80 | –
8 | B7 | – | – | – | – | – | – | – | – | 39 | 68 | –
9 | B8 | – | – | – | – | – | – | – | – | – | – | leaf damage score, Interquartile range [2]: 5.0; leaf damage score, 25th percentile [2]: 10.0; leaf damage score, 75th percentile [2]: 15.0; leaf damage score, 90th percentile [2]: 34.5; leaf damage score, Median [2]: 10.0
10 | B9 | – | – | – | – | – | – | – | – | – | – | leaf damage score, Interquartile range [2]: 10.0; leaf damage score, 25th percentile [2]: 5.0; leaf damage score, 75th percentile [2]: 15.0; leaf damage score, 90th percentile [2]: 49.0; leaf damage score, Median [2]: 10.0
11 | B10 | 40 | 67 | 95% | n.i. | n.i. (no inhibition was observed under the given conditions) | n.i. | 83 | n.i. | 50 | 81 | –
12 | B11 | – | – | – | – | – | – | – | – | 47 | 74 | –
13 | B12 | 67 | 79 | n.i. (no inhibition was observed under the given conditions) | n.i. | n.i. (no inhibition was observed under the given conditions) | n.i. | – | – | – | – | –
14 | B13 | 43 | 68 | 90% | 90% | n.i. (no inhibition was observed under the given conditions) | 95% | 85 | 90% | 29 | 54 | –
15 | B14 | 21 | 44 | 67% | 74% | 91% | 95% | 70 | 85% | – | – | –
